Measurements published in the RNAGym collection of RNA variant scans (doi:10.1073/pnas.2313332121).

B1: TPR t1 (parent)
chain: GACCAAUCUGCCCUCAGAGCUCGAGAACAUCUUCGGAUGCAGAGGAGGCAGGCUUCGGUGGCGCGAUAGCGCCAACGUCCUCAACCUCCAAUGCAUCCCACCACAUGAUGAUGCCUGAAGAGCCUUGGUUUUUUG

Variants of: B1
Test: polymerase ribozyme fitness, log enrichment relative to wild type (log ratio); higher = more active; in vitro selection for triplet polymerase activity
Procedure, shortened: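 Mutant libraries of both subunits of a heterodimeric triplet polymerase ribozyme were PCR-built, transcribed, and selected once in triplicate, with frozen incubation at −7 °C and capture of gel-excised extended constructs on streptavidin beads before RT-PCR. Illumina sequencing of input and output libraries was filtered to genotypes with ≥10 input reads and ≥1 read per output. Fitness is the logarithm of genotype enrichment over wild-type enrichment, using inverse-variance-weighted replicate averages. The logarithm is base 2.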

Variant	polymerase ribozyme fitness (log ratio)
U14C G48U C72G	-2.66
U14G G61C	-4.21
A16U C89U	-1.23
U14G A111C G127A	-3.8
U14G G47A C89G C114G U116C G117A U133A	-6.43
C15A C76U C79A C104A C123A	-4.6
A16G C73A A90C	-3.02
A16C C72A	-3.3
C15U C73U A83G	-2.56
A16G G60U A90U	-2.82
A16U C56A G69U G117U	-2.35
A16G G47C C56U A74U A121G G128C	-3.74
A16U C34A C64A U109G C123A U129G	-6.08
C15U G69U U78C	-0.901
C15U G47A G113C A121C	-4.25
C15A U21A U78A G93U	-2.36
U14C U54G C62U	-1.69
C15U C88A A91C	-2.47
C15A G48C C123G	-1.77
C15G C73U G107U G117C	-3.77
A16C U87A	-2.49

Variant	polymerase ribozyme fitness (log ratio)
U14G G36U G42C G61A G113A U132A	-5.95
U14C G71U A91U C114A A121U C124U	-4.54
C15G C56U A83U C115G C123A	-4.36
C15G C73A	-2.02
A16U A29U U54A G63U	-3.53
U14G G48U	-2.8
C15A G39U C40U C64U G93C	-4.09
A16U G47C G71U	-4.17
U14G C114U U132A	-7.19
U14G G120C	0.117
A16U A41G G63U C115U	-4.47
A16C C115G	-3.37
C15U U81G C82G A119G G120U C123A	-0.519
C15U A27C C85A G117C C124G G128A U129G	-6.66
A16U A50G U96A U112C G127C	-2.27
C15A C56U U59C C64U A84U C98G G110A	-7.69
A16U C34A U109G C123A U129G	-5.83
C15G A43U C49U A74G	-4.91
C15U G63C	-2.18
C15U G120A	-1.08
C15U G120U	-0.697

Variant	polymerase ribozyme fitness (log ratio)
C15A A66G U81C	-4.15
C15U A24G A41G C73A C115U	-2.38
A16U A41G U78G A100U	-3.98
A16U A24G C115G	-6.98
A16U C56A	-1.97
A16U C124A	-0.305
C15A A29G	-2.66
C15G C56G U87G U112G G113A C123G G135A	-3.08
C15A G23U C72G C98A C114G U116A	-7.66
C15G C97U C124U	-1.59
C15A U78C	-2.38
U14C C62U	-1.6
A16C C49G C101A	-4.66
A16U C20A C73G G117U A119U	-5.33
C15A U92A	-4.5
C15A C40A	-3.27
C15U C88U A118G	-1.82
A16U A29U U30A A41C C49G A90G G120C	-6.59
C15G C79U	-1.96
C15G G44C G47A G69U	-3.06
C15G A43U C56U	-3.19

Variant	polymerase ribozyme fitness (log ratio)
A16C C49U G60U U78A	-3.42
C15U G60C A91U U129A	-4.69
C15G A29G G39U G69U	-4.2
C15U C53G C82A	-1.78
U14G C22U A29G C124G U129C	-3.15
C15A A24U C72G C76U C123G	-6.56
C15G C49U U78A U125G	-3.37
C15U G60U	-1.08
C15A C53G C102U	-4.5
C15A G47U C64U C123U	-2.43
U14G U130A	-3.36
C15U C56G G61U A66G C73U C94G C97G C98A U112G A119C G135C	-5.66
C15G U59G C123G U129G	-1.59
C15U A37C C76G	-2.14
A16G G69U C73A C115U	-1.93
C15U C56U G117C	-1.61
A16U C82A	-2.02
C15A G61U	-0.806
C15A G39C G117A	-1.64
C15G U112C	-1.42
